Results published in PMC6262902, “Characterization of a New Cyclohexylamine Oxidase From Acinetobacter sp. YT-02” (Frontiers in Microbiology, 2018).

What was measured:
[1] = target: cyclohexylamine oxidase from Acinetobacter sp. YT-02 (Acinetobacter sp. YT-02); assay: SEC; gel filtration on Superose 6 Increase 10/300GL; 10 mM phosphate buffer, pH 7.4, 140 mM NaCl; calibrated with apoferritin (443 kDa), alcohol dehydrogenase (150 kDa), bovine albumin (66 kDa), carbonic anhydrase (29 kDa)
[2] = substrate: NC1CCCCC1; assay: purified protein; format: biochemical, Acinetobacter sp. YT-02; conditions: 50 °C, pH 7.0 sodium phosphate

Molecule	stoichiometry N [1]	Km [2] [µM]	Vmax [2] [µM/min]	kcat [2] [s⁻¹]	kcat/Km [2] [M⁻¹ s⁻¹]
cyclohexylamine oxidase from Acinetobacter sp. YT-02 (enzyme)	2	–	–	–	–
CHAOYT–02 (Acinetobacter sp. YT-02) (protein, full-length ORF of 460 residues, no signal peptide; pET-28b 6xHis tag and vector residues kept (53,534 Da with tag); E. coli BL21 (DE3); dimer about 91 kDa; FAD enzyme) MSVNDNRESASYDADVIVVGAGPSGSYAAKLLHDRGISVKLVEAKDRVGGRTWSSKTEAQGGPIDFGGQWIGETHVLLPELGEELGLETVSSIKPGNDIFVFNGQVTVGEEDQAPASASWTAELTRSFELLDEAGARLGWEAPWASPAVEALDGMTVAQWLDENVSSDEVRMIHEVMVNILNGANTTEVSMAYWAYFVHQGEGIESLIGTRSGAQIAWFVGGMGQVTELIADRLGDNLHLNWPVTSIEQQDSGVVVSSGDRRLTAKYVILATPPSDASRMIFDQPLPAKRAQLQARAPMGRLAKIQVRYRDAFWQEENLSGAAFVCGDLAFWVFDGSKPSDSLATIVGFIGGKHLDLWHSFTPEEREARFIDMLVTNIGEKARDTVYYHETDWTEQPWTGGAPVTFMPTGLLSSSGSALRGSAGRIHFAGTEAAPMWSGYIEGALRAGKIAATDIIARLG	–	250 ± 20	4300	523 ± 10	2.08e+06
